Measurements: patent US20100160262

Molecular target: enzymatically [3H] acetylated histone H3 peptide (amino acids 1-24) (UniProt P68431)

human SIRT2 with a C-terminal FLAG tag
standard histone deacetylase assay (radioactive, H3 peptide substrate): These enzymes also deacetylate histones as determined in a standard histone deacetylase assay
